Results on two molecules are retold here after PMC6212719.

In data set [1] the target is T1, MtbRNAP core (alpha2 beta beta' omega);sigma B (Mycobacterium …, UniProt P9WGZ1;P9WGY9;P9WGY7;P9WGY5;P9WGI5 1-347;1-1178;1-1316;1-110;1-323, |). The data set can be described thus: EMSA. In general terms: A gel shift assay detects complexes by their altered migration in electrophoresis.
The target of data set [2] is MtbRNAP core (alpha2 beta beta' omega);sigma B;RbpA (Mycobacterium …, UniProt P9WGZ1;P9WGY9;P9WGY7;P9WGY5;P9WGI5;P9WHJ5 1-347;1-1178;1-1316;1-110;1-323;1-111, ||). The experiment in a line: EMSA.
The target in data set [3] is MtbRNAP core (alpha2 beta beta' omega);sigma B;RbpA KKAA (Mycobacterium …, UniProt P9WGZ1;P9WGY9;P9WGY7;P9WGY5;P9WGI5;P9WHJ5 1-347;1-1178;1-1316;1-110;1-323;1-111, ||K73A;K74A). The experiment in a line: EMSA.
Data set [4] concerns the target MtbRNAP core (alpha2 beta beta' omega);sigma B;RbpA R79A (Mycobacterium …, UniProt P9WGZ1;P9WGY9;P9WGY7;P9WGY5;P9WGI5;P9WHJ5 1-347;1-1178;1-1316;1-110;1-323;1-111, ||R79A). The data set can be described thus: KMnO4 footprinting.
The target in data set [5] is T1, MtbRNAP core (alpha2 beta beta' …). The data set can be described thus: EMSA. The source holds these as a separate data set.

B1: sigAP-TGTG (dsDNA)
DNA 1: CACTGAAACTTGCCCGCTCGGGCTGTACTCGTGCGCAGTTGTGTTACAATGGTCAGCGGCGGCCGCCCGACCGATAGCGCGCGAGTATTCACGCTGATATCAACGC
DNA 2: GCGTTGATATCAGCGTGAATACTCGCGCGCTATCGGTCGGGCGGCCGCCGCTGACCATTGTAACACAACTGCGCACGAGTACAGCCCGAGCGGGCAAGTTTCAGTG
One may read the Kd as the constant that tells how readily two partners part at equilibrium. Low readings indicate a tighter complex, high ones a looser complex. Consider B1, for which the Kd in data set [1] was 117 nM; in data set [2], 42 nM. Besides, the binding result in data set [3] and in data set [4] was “binds” in each case.

B2: sigAP-TG1 (dsDNA)
DNA 1: CACTGAAACTTGCCCGCTCGGGCTGTACTCGTGCGCAGTAATGTTACAATGGTCAGCGGCGGCCGCCCGACCGATAGCGCGCGAGTATTCACGCTGATATCAACGC
DNA 2: GCGTTGATATCAGCGTGAATACTCGCGCGCTATCGGTCGGGCGGCCGCCGCTGACCATTGTAACATTACTGCGCACGAGTACAGCCCGAGCGGGCAAGTTTCAGTG
In the case of B2, the binding result in data set [5] is on record as “binds”.
